The experiment concerns the target recombinant full-length RACK1 protein (ITC) (human) (UniProt P63244). Nature of the experiment: ITC; LARP4 peptide (400 μM; 300 μM for 600–625) injected into RACK1 (40 μM; 30 μM) in the cell; iTC200; 298K; 20 mM HEPES, 300 mM NaCl, 10% glycerol, 1 mM DTT pH 7.5; triplicate. On the technique in general: In ITC the heat of successive injections is recorded.

For orientation: Kd means the constant that tells how readily two partners part at equilibrium. One may read the stoichiometry N as a count of units in the complex or per binding partner. As for “HsLARP4 peptide 612–637 (from UniProt Q71RC2-1 612-637)”, the Kd came out at 2100 nM, the dH is -8.6 kcal/mol and the stoichiometry N came to 0.9.
